Assay results published in publication doi:10.1101/2024.11.26.625568, “Structural and functional insights into activation and regulation of the dynein-dynactin-NuMA complex” (bioRxiv, 2024).

B1: NuMA MTBD2 (domain or fragment, human, UniProt Q14980 2002-2115, looked up)
chain: ESKKATSCFPRPMTPRDRHEGRKQSTTEAQKKAAPASTKQADRRQSMAFSILNTPKKLGNSLLRRGASKKALSKASPNTRSGTRRSPRIATTTASAATAAAIGATPRAKGKAKH
notes: NuMA, human, a.a; 2002-2115; source: SF9 insect cells (baculovirus), purified (IgG Sepharose, TEV elution, Superdex 200 SEC); not shown: His6, N-terminal, cleaved; ZZ, N-terminal, cleaved; MBP, N-terminal, cleaved; mNG, C-terminal, kept
B2: NuMA 1-1699 (domain or fragment, human, UniProt Q14980 1-1699, looked up)
chain: MTLHATRGAALLSWVNSLHVADPVEAVLQLQDCSIFIKIIDRIHGTEEGQQILKQPVSERLDFVCSFLQKNRKHPSSPECLVSAQKVLEGSELELAKMTMLLLYHSTMSSKSPRDWEQFEYKIQAELAVILKFVLDHEDGLNLNEDLENFLQKAPVPSTCSSTFPEELSPPSHQAKREIRFLELQKVASSSSGNNFLSGSPASPMGDILQTPQFQMRRLKKQLADERSNRDELELELAENRKLLTEKDAQIAMMQQRIDRLALLNEKQAASPLEPKELEELRDKNESLTMRLHETLKQCQDLKTEKSQMDRKINQLSEENGDLSFKLREFASHLQQLQDALNELTEEHSKATQEWLEKQAQLEKELSAALQDKKCLEEKNEILQGKLSQLEEHLSQLQDNPPQEKGEVLGDVLQLETLKQEAATLAANNTQLQARVEMLETERGQQEAKLLAERGHFEEEKQQLSSLITDLQSSISNLSQAKEELEQASQAHGARLTAQVASLTSELTTLNATIQQQDQELAGLKQQAKEKQAQLAQTLQQQEQASQGLRHQVEQLSSSLKQKEQQLKEVAEKQEATRQDHAQQLATAAEEREASLRERDAALKQLEALEKEKAAKLEILQQQLQVANEARDSAQTSVTQAQREKAELSRKVEELQACVETARQEQHEAQAQVAELELQLRSEQQKATEKERVAQEKDQLQEQLQALKESLKVTKGSLEEEKRRAADALEEQQRCISELKAETRSLVEQHKRERKELEEERAGRKGLEARLQQLGEAHQAETEVLRRELAEAMAAQHTAESECEQLVKEVAAWRERYEDSQQEEAQYGAMFQEQLMTLKEECEKARQELQEAKEKVAGIESHSELQISRQQNELAELHANLARALQQVQEKEVRAQKLADDLSTLQEKMAATSKEVARLETLVRKAGEQQETASRELVKEPARAGDRQPEWLEEQQGRQFCSTQAALQAMEREAEQMGNELERLRAALMESQGQQQEERGQQEREVARLTQERGRAQADLALEKAARAELEMRLQNALNEQRVEFATLQEALAHALTEKEGKDQELAKLRGLEAAQIKELEELRQTVKQLKEQLAKKEKEHASGSGAQSEAAGRTEPTGPKLEALRAEVSKLEQQCQKQQEQADSLERSLEAERASRAERDSALETLQGQLEEKAQELGHSQSALASAQRELAAFRTKVQDHSKAEDEWKAQVARGRQEAERKNSLISSLEEEVSILNRQVLEKEGESKELKRLVMAESEKSQKLEERLRLLQAETASNSARAAERSSALREEVQSLREEAEKQRVASENLRQELTSQAERAEELGQELKAWQEKFFQKEQALSTLQLEHTSTQALVSELLPAKHLCQQLQAEQAAAEKRHREELEQSKQAAGGLRAELLRAQRELGELIPLRQKVAEQERTAQQLRAEKASYAEQLSMLKKAHGLLAEENRGLGERANLGRQFLEVELDQAREKYVQELAAVRADAETRLAEVQREAQSTARELEVMTAKYEGAKVKVLEERQRFQEERQKLTAQVEQLEVFQREQTKQVEELSKKLADSDQASKVQQQKLKAVQAQGGESQQEAQRLQAQLNELQAQLSQKEQAAEHYKLQMEKAKTHYDAKKQQNQELQEQLRSLEQLQKENKELRAEAERLGHELQQAGLKTKEAEQTCRHLTAQVRSLEAQVAHADQQLRDLGK
modifications: LD555 dye on the SNAP tag
notes: NuMA (nuclear mitotic apparatus protein), human, a.a; 1-1699; also called NuMA N-terminal construct; source: SF9 insect cells (baculovirus), purified (IgG Sepharose, TEV elution, Superose 6 SEC); not shown: His6, N-terminal, cleaved; ZZ, N-terminal, cleaved; SNAP, C-terminal, kept
B3: NuMA 1-705 (domain or fragment, human, UniProt Q14980 1-705, looked up)
chain: MTLHATRGAALLSWVNSLHVADPVEAVLQLQDCSIFIKIIDRIHGTEEGQQILKQPVSERLDFVCSFLQKNRKHPSSPECLVSAQKVLEGSELELAKMTMLLLYHSTMSSKSPRDWEQFEYKIQAELAVILKFVLDHEDGLNLNEDLENFLQKAPVPSTCSSTFPEELSPPSHQAKREIRFLELQKVASSSSGNNFLSGSPASPMGDILQTPQFQMRRLKKQLADERSNRDELELELAENRKLLTEKDAQIAMMQQRIDRLALLNEKQAASPLEPKELEELRDKNESLTMRLHETLKQCQDLKTEKSQMDRKINQLSEENGDLSFKLREFASHLQQLQDALNELTEEHSKATQEWLEKQAQLEKELSAALQDKKCLEEKNEILQGKLSQLEEHLSQLQDNPPQEKGEVLGDVLQLETLKQEAATLAANNTQLQARVEMLETERGQQEAKLLAERGHFEEEKQQLSSLITDLQSSISNLSQAKEELEQASQAHGARLTAQVASLTSELTTLNATIQQQDQELAGLKQQAKEKQAQLAQTLQQQEQASQGLRHQVEQLSSSLKQKEQQLKEVAEKQEATRQDHAQQLATAAEEREASLRERDAALKQLEALEKEKAAKLEILQQQLQVANEARDSAQTSVTQAQREKAELSRKVEELQACVETARQEQHEAQAQVAELELQLRSEQQKATEKERVAQEKDQLQEQLQ
modifications: LD555 dye on the SNAP tag
notes: NuMA (nuclear mitotic apparatus protein), human, a.a; Construct used for the cryo-EM structure of the DDN complex; also called NuMA N-terminal construct; source: SF9 insect cells (baculovirus), purified (IgG Sepharose, TEV elution, Superose 6 SEC); not shown: His6, N-terminal, cleaved; ZZ, N-terminal, cleaved; SNAP, C-terminal, kept
B4: NuMA 1-505 (domain or fragment, human, UniProt Q14980 1-505, looked up)
chain: MTLHATRGAALLSWVNSLHVADPVEAVLQLQDCSIFIKIIDRIHGTEEGQQILKQPVSERLDFVCSFLQKNRKHPSSPECLVSAQKVLEGSELELAKMTMLLLYHSTMSSKSPRDWEQFEYKIQAELAVILKFVLDHEDGLNLNEDLENFLQKAPVPSTCSSTFPEELSPPSHQAKREIRFLELQKVASSSSGNNFLSGSPASPMGDILQTPQFQMRRLKKQLADERSNRDELELELAENRKLLTEKDAQIAMMQQRIDRLALLNEKQAASPLEPKELEELRDKNESLTMRLHETLKQCQDLKTEKSQMDRKINQLSEENGDLSFKLREFASHLQQLQDALNELTEEHSKATQEWLEKQAQLEKELSAALQDKKCLEEKNEILQGKLSQLEEHLSQLQDNPPQEKGEVLGDVLQLETLKQEAATLAANNTQLQARVEMLETERGQQEAKLLAERGHFEEEKQQLSSLITDLQSSISNLSQAKEELEQASQAHGARLTAQVASLTS
modifications: LD555 dye on the SNAP tag
notes: NuMA (nuclear mitotic apparatus protein), human, a.a; The methods say 'C-terminal SNAP or mNG'; also called NuMA N-terminal construct; source: SF9 insect cells (baculovirus), purified (IgG Sepharose, TEV elution, Superose 6 SEC); not shown: His6, N-terminal, cleaved; ZZ, N-terminal, cleaved; SNAP, C-terminal, kept
B5: TPR domain of LGN (a.a. 1-409) (domain or fragment, human, UniProt P81274 1-409, looked up)
chain: MEENLISMREDHSFHVRYRMEASCLELALEGERLCKSGDCRAGVSFFEAAVQVGTEDLKTLSAIYSQLGNAYFYLHDYAKALEYHHHDLTLARTIGDQLGEAKASGNLGNTLKVLGNFDEAIVCCQRHLDISRELNDKVGEARALYNLGNVYHAKGKSFGCPGPQDVGEFPEEVRDALQAAVDFYEENLSLVTALGDRAAQGRAFGNLGNTHYLLGNFRDAVIAHEQRLLIAKEFGDKAAERRAYSNLGNAYIFLGEFETASEYYKKTLLLARQLKDRAVEAQSCYSLGNTYTLLQDYEKAIDYHLKHLAIAQELNDRIGEGRACWSLGNAYTALGNHDQAMHFAEKHLEISREVGDKSGELTARLNLSDLQMVLGLSYSTNNSIMSENTEIDSSLNGVRPKLGRRHSM
modifications: LD655 dye on the SNAP tag (unlabeled LGN in some assays)
notes: LGN, human, N-terminal TPR domain a.a; 1-409; cloned from pTK47_mCherry-LGN-Hardened; The methods say 'C-terminal SNAP or mNG'; the LD655 labelling implies SNAP; also called LGN TPR; source: SF9 insect cells (baculovirus), purified (IgG Sepharose, TEV elution, Resource-Q ion exchange); not shown: His6, N-terminal, cleaved; ZZ, N-terminal, cleaved; SNAP, C-terminal, kept
B6: NuMA C (domain or fragment, human, UniProt Q14980 1700-2115, looked up)
chain: FQVATDALKSREPQAKPQLDLSIDSLDLSCEEGTPLSITSKLPRTQPDGTSVPGEPASPISQRLPPKVESLESLYFTPIPARSQAPLESSLDSLGDVFLDSGRKTRSARRRTTQIINITMTKKLDVEEPDSANSSFYSTRSAPASQASLRATSSTQSLARLGSPDYGNSALLSLPGYRPTTRSSARRSQAGVSSGAPPGRNSFYMGTCQDEPEQLDDWNRIAELQQRNRVCPPHLKTCYPLESRPSLSLGTITDEEMKTGDPQETLRRASMQPIQIAEGTGITTRQQRKRVSLEPHQGPGTPESKKATSCFPRPMTPRDRHEGRKQSTTEAQKKAAPASTKQADRRQSMAFSILNTPKKLGNSLLRRGASKKALSKASPNTRSGTRRSPRIATTTASAATAAAIGATPRAKGKAKH
notes: NuMA, human, C-terminal region a.a; 1700-2115; also called NuMA C-terminus; NuMA C-mNG; source: SF9 insect cells (baculovirus), purified (IgG Sepharose, TEV elution, Superdex 200 SEC); not shown: His6, N-terminal, cleaved; ZZ, N-terminal, cleaved; MBP, N-terminal, cleaved; mNG, C-terminal, kept

Key:
[1] = target: microtubules (pig brain tubulin) (pig, UniProt P02550 1-451; Q767L7 1-444, Cy3 or Cy5 and biotin labels on a fraction of the tubulin | Cy3 or Cy5 and biotin labels on a fraction of the tubulin); assay: TIRF imaging of fluorescent protein on surface-immobilised microtubules; Cy3/biotin taxol-stabilised MTs immobilised by streptavidin; serial dilutions of mNG-fused NuMA constructs in MBC buffer (30 mM HEPES pH 7.4, 5 mM MgSO4, 1 mM EGTA, 100 mM KAc, casein, pluronic, methylcellulose); apparent Kd from a fit to a binding isotherm; conditions: both partners purified
[2] = target: the molecule itself; assay: mass photometry; single protein diluted to 5-20 nM in 50 mM HEPES pH 7.4, 150 mM NaCl, 1 mM EGTA, 10% glycerol; TwoMP mass photometer
NuMA C = target: B6; assay: mass photometry; NuMA C and LGN mixed in equimolar (20 nM) concentrations; mass photometry buffer; conditions: both partners purified

Binder	Kd [1]	stoichiometry N [2]	further results
B1	28 nM	–	–
B2	–	2	–
B3	–	2	–
B4	–	2	–
B5	–	–	stoichiometry N (NuMA C): 3 LGN per 3 NuMA C
B6	390 nM	–	–
